Experimental data: paper PMC10156175 (Cell, 2023)
Each block holds one binder with its values, some of them ahead of it.

How the values were obtained:
CUL1 = CUL1 (human, UniProt Q13616); assay: cryo-EM structure
[1] = molecular target: SCF^FBXW7 (CUL1-RBX1-SKP1-FBXW7), pre-formed (human, UniProt Q13616;P62877;P63208;Q969H0, for the native gels: labelled with fluorescein (site not stated)); assay: native gel or EMSA
[2] = molecular target: SCF^SKP2 (CUL1-RBX1-SKP1-SKP2), pre-formed (human, UniProt Q13616;P62877;P63208;Q13309); assay: native gel or EMSA
SCF^SKP2 (CUL1-RBX1-SKP1-SKP2), pre-formed, sequence (Q13616 whole entry, chain 1 of 4): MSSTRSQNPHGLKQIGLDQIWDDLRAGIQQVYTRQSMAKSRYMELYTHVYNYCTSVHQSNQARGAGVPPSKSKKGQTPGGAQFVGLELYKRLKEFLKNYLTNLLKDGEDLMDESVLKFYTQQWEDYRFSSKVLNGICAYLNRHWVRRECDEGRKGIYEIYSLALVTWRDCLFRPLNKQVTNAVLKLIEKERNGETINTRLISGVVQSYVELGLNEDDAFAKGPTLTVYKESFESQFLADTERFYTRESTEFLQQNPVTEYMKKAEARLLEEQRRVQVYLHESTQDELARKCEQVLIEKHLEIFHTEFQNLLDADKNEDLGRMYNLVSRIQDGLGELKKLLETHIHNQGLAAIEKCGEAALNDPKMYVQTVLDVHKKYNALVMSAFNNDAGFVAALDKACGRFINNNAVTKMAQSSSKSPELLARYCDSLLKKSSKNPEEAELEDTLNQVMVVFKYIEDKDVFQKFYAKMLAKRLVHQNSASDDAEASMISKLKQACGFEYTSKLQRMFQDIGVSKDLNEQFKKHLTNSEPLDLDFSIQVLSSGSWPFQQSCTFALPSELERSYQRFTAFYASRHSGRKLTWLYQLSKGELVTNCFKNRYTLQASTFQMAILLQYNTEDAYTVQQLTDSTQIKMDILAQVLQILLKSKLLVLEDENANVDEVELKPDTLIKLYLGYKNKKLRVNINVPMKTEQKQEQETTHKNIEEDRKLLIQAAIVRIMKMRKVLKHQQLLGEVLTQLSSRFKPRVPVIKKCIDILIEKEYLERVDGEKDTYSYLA
SCF^SKP2 (CUL1-RBX1-SKP1-SKP2), pre-formed, sequence (P62877 5-108, chain 2 of 4): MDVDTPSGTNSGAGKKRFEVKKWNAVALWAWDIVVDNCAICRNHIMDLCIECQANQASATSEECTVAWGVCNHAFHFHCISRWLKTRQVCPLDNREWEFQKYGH
SCF^SKP2 (CUL1-RBX1-SKP1-SKP2), pre-formed, sequence (P63208 whole entry, chain 3 of 4): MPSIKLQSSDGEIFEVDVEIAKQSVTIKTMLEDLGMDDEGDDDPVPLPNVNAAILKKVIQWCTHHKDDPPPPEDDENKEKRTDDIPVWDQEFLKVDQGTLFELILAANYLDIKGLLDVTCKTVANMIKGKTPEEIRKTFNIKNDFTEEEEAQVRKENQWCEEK
SCF^SKP2 (CUL1-RBX1-SKP1-SKP2), pre-formed, sequence (Q13309 whole entry, chain 4 of 4): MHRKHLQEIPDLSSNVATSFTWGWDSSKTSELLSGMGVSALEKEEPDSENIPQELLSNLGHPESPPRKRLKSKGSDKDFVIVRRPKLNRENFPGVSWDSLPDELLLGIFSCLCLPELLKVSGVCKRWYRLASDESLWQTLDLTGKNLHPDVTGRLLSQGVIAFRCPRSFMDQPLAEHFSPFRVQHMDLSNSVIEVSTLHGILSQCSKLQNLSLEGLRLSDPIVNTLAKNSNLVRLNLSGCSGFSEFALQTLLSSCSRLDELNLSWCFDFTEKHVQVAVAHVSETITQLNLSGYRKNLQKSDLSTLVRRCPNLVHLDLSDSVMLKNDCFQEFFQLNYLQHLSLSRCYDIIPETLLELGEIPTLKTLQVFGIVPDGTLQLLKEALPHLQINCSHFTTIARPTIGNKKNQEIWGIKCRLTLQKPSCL

SCF^FBXW7 (CUL1-RBX1-SKP1-FBXW7), pre-formed, sequence (Q13616 whole entry, chain 1 of 3): as the sequence (Q13616 whole entry, chain 1 of 4) above
SCF^FBXW7 (CUL1-RBX1-SKP1-FBXW7), pre-formed, sequence (P62877 5-108, chain 2 of 3): as the sequence (P62877 5-108, chain 2 of 4) above
SCF^FBXW7 (CUL1-RBX1-SKP1-FBXW7), pre-formed, sequence (P63208 whole entry, chain 3 of 3): as the sequence (P63208 whole entry, chain 3 of 4) above
CUL1, sequence (Q13616 whole entry): as the sequence (Q13616 whole entry, chain 1 of 4) above

- binding result (CUL1): binds
B1: FBXW7 (263-C) (domain or fragment)
chain: TQVKHMMQVIEPQFQRDFISLLPKELALYVLSFLEPKDLLQAAQTCRYWRILAEDNLLWREKCKEEGIDEPLHIKRRKVIKPGFIHSPWKSAYIRQHRIDTNWRRGELKSPKVLKGHDDHVITCLQFCGNRIVSGSDDNTLKVWSAVTGKCLRTLVGHTGGVWSSQMRDNIIISGSTDRTLKVWNAETGECIHTLYGHTSTVRCMHLHEKRVVSGSRDATLRVWDIETGQCLHVLMGHVAAVRCVQYDGRRVVSGAYDFMVKVWDPETETCLHTLQGHTNRVYSLQFDGIHVVSGSLDTSIRVWDVETGNCIHTLTGHQSLTSGMELKDNILVSGNADSTVKIWDIKTGQCLQTLQGPNKHQSAVTCLQFNKNFVITSSDDGTVKLWDLKTGEFIRNLVTLESGGSGGVVWRIRASNTKLVCAVGSRNGTEETKLLVLDFDVDMK

- binding result [1]: binds
- binding result [2]: binds
B2: CAND1 (Cullin-associated NEDD8-dissociated protein 1) (natural protein)
chain: MASASYHISNLLEKMTSSDKDFRFMATNDLMTELQKDSIKLDDDSERKVVKMILKLLEDKNGEVQNLAVKCLGPLVSKVKEYQVETIVDTLCTNMLSDKEQLRDISSIGLKTVIGELPPASSGSALAANVCKKITGRLTSAIAKQEDVSVQLEALDIMADMLSRQGGLLVNFHPSILTCLLPQLTSPRLAVRKRTIIALGHLVMSCGNIVFVDLIEHLLSELSKNDSMSTTRTYIQCIAAISRQAGHRIGEYLEKIIPLVVKFCNVDDDELREYCIQAFESFVRRCPKEVYPHVSTIINICLKYLTYDPNYNYDDEDEDENAMDADGGDDDDQGSDDEYSDDDDMSWKVRRAAAKCLDAVVSTRHEMLPEFYKTVSPALISRFKEREENVKADVFHAYLSLLKQTRPVQSWLCDPDAMEQGETPLTMLQSQVPNIVKALHKQMKEKSVKTRQCCFNMLTELVNVLPGALTQHIPVLVPGIIFSLNDKSSSSNLKIDALSCLYVILCNHSPQVFHPHVQALVPPVVACVGDPFYKITSEALLVTQQLVKVIRPLDQPSSFDATPYIKDLFTCTIKRLKAADIDQEVKERAISCMGQIICNLGDNLGSDLPNTLQIFLERLKNEITRLTTVKALTLIAGSPLKIDLRPVLGEGVPILASFLRKNQRALKLGTLSALDILIKNYSDSLTAAMIDAVLDELPPLISESDMHVSQMAISFLTTLAKVYPSSLSKISGSILNELIGLVRSPLLQGGALSAMLDFFQALVVTGTNNLGYMDLLRMLTGPVYSQSTALTHKQSYYSIAKCVAALTRACPKEGPAVVGQFIQDVKNSRSTDSIRLLALLSLGEVGHHIDLSGQLELKSVILEAFSSPSEEVKSAASYALGSISVGNLPEYLPFVLQEITSQPKRQYLLLHSLKEIISSASVVGLKPYVENIWALLLKHCECAEEGTRNVVAECLGKLTLIDPETLLPRLKGYLISGSSYARSSVVTAVKFTISDHPQPIDPLLKNCIGDFLKTLEDPDLNVRRVALVTFNSAAHNKPSLIRDLLDTVLPHLYNETKVRKELIREVEMGPFKHTVDDGLDIRKAAFECMYTLLDSCLDRLDIFEFLNHVEDGLKDHYDIKMLTFLMLVRLSTLCPSAVLQRLDRLVEPLRATCTTKVKANSVKQEFEKQDELKRSAMRAVAALLTIPEAEKSPLMSEFQSQISSNPELAAIFESIQKDSSSTNLESMDTS
modifications: for the native gels only: TAMRA-(PEG)5-LPETGG peptide joined to the amino-terminus by sortase
